Results on 4 molecules are retold here after US20200024360A1 (Janssen / Centocor, published 2020).

The target of assay [1] is T1, human PSMA (prostate specific membrane antigen), full length (human, UniProt Q04609 1-750).
T1 construct: On LNCaP or C4-2B cells (endogenous) or transduced HEK293F cells; also called FOLH1_HUMAN; hPSMA
The experiment in a line: flow cytometry cell binding assay, bispecific antibody titrated on LNCaP cells (human PSMA). The protocol: (§1) PSMA×CD3 bispecific antibodies were tested for binding to PSMA positive cell lines LNCAP, human PSMA-HEK, Chimpanzee-PSMA-HEK and Cynomolgous monkey PSMA-HEK. To assess the binding capabilities of the PSMA bispecific antibodies, the cell-binding assay was utilized (described previously). Briefly, PSMA expressing tumor cells are bound by bispecific antibodies at known concentrations and the bound antibody is detected by an anti-human kappa light chain PE conjugated detection reagent (Invitrogen). The Mean Fluorescents Intensity (MFI) is the measure of bound bispecific antibody. The MFI is converted to a relative EC₅₀. EC₅₀ is a commonly used dose-response curve, where the half maximal effective concentration or the EC₅₀ point is defined as the inflection point of the curve. EC₅₀ s were determined by measuring cell bound bispecific and known concentrations. […] The dose response curves were then diluted down to that of background or no bispecific binding. The inflection point of this curve reflects the EC₅₀ point. The calculated EC₅₀ is determined by taking the ug/ml amount of bispecific antibody at the EC₅₀ point and converting it to a molarity value based on the MW of the bispecific antibody. Bispecific antibodies were normalized for protein concentration and then incubated with the same number of cells expressing either human or cyno PSMA. The MFI at each concentration was collected by flow cytometry and plotted as a function of concentration. Data was transformed via log 10 and then plotted. Nonlinear regression of binding curves was done to determine EC₅₀ s. These relative values were used for ranking PSMA binding to target cells.
PSMA×CD3 bispecific antibodies were tested for binding to PSMA positive cell line, LNCAP, to PSMA negative cell line, PC3. To assess the binding capabilities of the PSMA bispecific antibodies, the cell-binding assay was utilized (described previously). Bispecific antibodies were normalized for protein concentration and then incubated with the same number of cells expressing either human or cyno PSMA. The MFI at each concentration was collected by flow cytometry and plotted as a function of concentration.

In assay [2] the target is T1, human PSMA (prostate specific membrane …). Put plainly: FACS, whole cell binding.
In assay [3] the target is T2, Cynomolgous monkey PSMA, full length (Macaca fascicularis, UniProt Q04609 1-750 (human entry)).
T2 construct: On transfected HEK293F cells; also called cyno PSMA; EHH56646.1
T2 chain: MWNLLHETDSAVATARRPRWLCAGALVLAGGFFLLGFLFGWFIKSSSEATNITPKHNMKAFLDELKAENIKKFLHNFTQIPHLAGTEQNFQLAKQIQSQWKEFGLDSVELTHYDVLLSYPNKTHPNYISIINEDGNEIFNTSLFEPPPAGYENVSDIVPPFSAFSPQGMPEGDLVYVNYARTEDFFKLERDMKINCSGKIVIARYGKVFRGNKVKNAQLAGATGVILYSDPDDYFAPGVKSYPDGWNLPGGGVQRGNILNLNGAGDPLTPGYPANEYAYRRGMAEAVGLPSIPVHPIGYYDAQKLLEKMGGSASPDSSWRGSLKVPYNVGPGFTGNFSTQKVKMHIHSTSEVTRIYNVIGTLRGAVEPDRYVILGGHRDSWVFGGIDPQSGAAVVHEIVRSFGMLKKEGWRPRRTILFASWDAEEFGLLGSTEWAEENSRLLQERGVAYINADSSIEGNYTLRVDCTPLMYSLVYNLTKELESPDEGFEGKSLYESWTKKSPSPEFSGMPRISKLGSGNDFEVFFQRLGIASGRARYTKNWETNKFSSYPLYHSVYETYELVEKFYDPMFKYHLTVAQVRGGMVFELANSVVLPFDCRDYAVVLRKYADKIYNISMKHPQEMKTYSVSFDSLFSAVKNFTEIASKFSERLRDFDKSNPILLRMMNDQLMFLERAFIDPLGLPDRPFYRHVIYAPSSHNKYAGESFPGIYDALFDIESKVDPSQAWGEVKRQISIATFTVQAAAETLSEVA
The experiment in a line: FACS, whole cell binding.

In assay [4] the target is T1, human PSMA (prostate specific membrane …). Put plainly: flow cytometry, bispecific antibody titrated on LNCaP cells (human PSMA), anti-human kappa light chain PE. As to the method:
as §1

Assay [5] addresses T2, Cynomolgous monkey PSMA, full length. Put plainly: flow cytometry, bispecific antibody titrated on cyno PSMA (PSMG5) HEK cells, anti-human kappa light chain PE. As to the method: as §1, with “The MFI at each concentration was collected by flow cytometry and plotted as a function of concentration. Data was transformed via log 10 and then plotted. Nonlinear regression of binding curves was done to determine EC₅₀ s. These relative values were used for ranking PSMA binding to target cells.” left out

For assay [6], the target named is T3, chimpanzee PSMA, full length (Pan troglodytes, UniProt Q04609 1-750 (human entry)).
T3 construct: On transfected HEK293F cells; also called chimp PSMA; H2Q3K5_PANTR
T3 chain: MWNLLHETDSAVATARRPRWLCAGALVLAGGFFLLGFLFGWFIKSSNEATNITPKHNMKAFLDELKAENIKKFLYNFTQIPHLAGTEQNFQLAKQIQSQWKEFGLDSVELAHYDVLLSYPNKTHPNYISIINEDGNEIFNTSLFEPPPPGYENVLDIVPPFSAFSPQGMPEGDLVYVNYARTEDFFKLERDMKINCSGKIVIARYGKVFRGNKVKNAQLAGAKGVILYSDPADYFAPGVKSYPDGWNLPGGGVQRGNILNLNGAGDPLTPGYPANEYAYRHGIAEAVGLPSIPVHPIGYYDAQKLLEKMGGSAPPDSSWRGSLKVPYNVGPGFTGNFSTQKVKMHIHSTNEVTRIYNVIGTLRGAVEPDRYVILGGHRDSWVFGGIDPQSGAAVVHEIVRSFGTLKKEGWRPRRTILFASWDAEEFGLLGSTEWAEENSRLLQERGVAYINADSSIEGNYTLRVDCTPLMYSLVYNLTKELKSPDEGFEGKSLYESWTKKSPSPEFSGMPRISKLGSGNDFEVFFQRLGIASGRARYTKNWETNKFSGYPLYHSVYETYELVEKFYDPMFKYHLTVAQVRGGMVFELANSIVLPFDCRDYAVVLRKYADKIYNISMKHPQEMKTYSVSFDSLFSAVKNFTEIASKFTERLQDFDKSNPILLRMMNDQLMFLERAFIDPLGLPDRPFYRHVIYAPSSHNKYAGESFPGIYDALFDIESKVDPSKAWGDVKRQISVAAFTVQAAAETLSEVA
The experiment in a line: flow cytometry, bispecific antibody titrated on chimp PSMA (PSMG9) HEK cells, anti-human kappa light chain PE. The protocol:
as §1, with “The MFI at each concentration was collected by flow cytometry and plotted as a function of concentration. Data was transformed via log 10 and then plotted. Nonlinear regression of binding curves was done to determine EC₅₀ s. These relative values were used for ranking PSMA binding to target cells.” left out

B1: PS3B27 (bispecific antibody, human IgG4 S228P, kappa, lambda, F234A L235A)
heavy 1: not shown
light 1: not shown
heavy 2: EVQLVESGGGLVQPGGSLRLSCAASGFTFNTYAMNWVRQAPGKGLEWVARIRSKYNNYATYYAASVKGRFTISRDDSKNSLYLQMNSLKTEDTAVYYCARHGNFGNSYVSWFAYWGQGTLVTVSSASTKGPSVFPLAPCSRSTSESTAALGCLVKDYFPEPVTVSWNSGALTSGVHTFPAVLQSSGLYSLSSVVTVPSSSLGTKTYTCNVDHKPSNTKVDKRVESKYGPPCPPCPAPEAAGGPSVFLFPPKPKDTLMISRTPEVTCVVVDVSQEDPEVQFNWYVDGVEVHNAKTKPREEQFNSTYRVVSVLTVLHQDWLNGKEYKCKVSNKGLPSSIEKTISKAKGQPREPQVYTLPPSQEEMTKNQVSLTCLVKGFYPSDIAVEWESNGQPENNYKTTPPVLDSDGSFLLYSKLTVDKSRWQEGNVFSCSVMHEALHNHYTQKSLSLSLGK
light 2: QTVVTQEPSLTVSPGGTVTLTCRSSTGAVTTSNYANWVQQKPGQAPRGLIGGTNKRAPGTPARFSGSLLGGKAALTLSGVQPEDEAEYYCALWYSNLWVFGGGTKLTVLGQPKAAPSVTLFPPSSEELQANKATLVCLISDFYPGAVTVAWKADSSPVKAGVETTTPSKQSNNKYAASSYLSLTPEQWKSHRSYSCQVTHEGSTVEKTVAPTECS
notes: IgG4 PAA; PSMA arm chains first, then CD3 arm (F405L, R409K); also called PSMB127 x CD3B219; PS2B27
Regarding B1, the “EC50 (read off the curve)” value in assay [1] is about 7 nM.

B2: PS3B30 (bispecific antibody, human IgG4 S228P, kappa, lambda, F234A L235A)
heavy 1: not shown
light 1: not shown
heavy 2: EVQLVESGGGLVQPGGSLRLSCAASGFTFNTYAMNWVRQAPGKGLEWVARIRSKYNNYATYYAASVKGRFTISRDDSKNSLYLQMNSLKTEDTAVYYCARHGNFGNSYVSWFAYWGQGTLVTVSSASTKGPSVFPLAPCSRSTSESTAALGCLVKDYFPEPVTVSWNSGALTSGVHTFPAVLQSSGLYSLSSVVTVPSSSLGTKTYTCNVDHKPSNTKVDKRVESKYGPPCPPCPAPEAAGGPSVFLFPPKPKDTLMISRTPEVTCVVVDVSQEDPEVQFNWYVDGVEVHNAKTKPREEQFNSTYRVVSVLTVLHQDWLNGKEYKCKVSNKGLPSSIEKTISKAKGQPREPQVYTLPPSQEEMTKNQVSLTCLVKGFYPSDIAVEWESNGQPENNYKTTPPVLDSDGSFLLYSKLTVDKSRWQEGNVFSCSVMHEALHNHYTQKSLSLSLGK
light 2: QTVVTQEPSLTVSPGGTVTLTCRSSTGAVTTSNYANWVQQKPGQAPRGLIGGTNKRAPGTPARFSGSLLGGKAALTLSGVQPEDEAEYYCALWYSNLWVFGGGTKLTVLGQPKAAPSVTLFPPSSEELQANKATLVCLISDFYPGAVTVAWKADSSPVKAGVETTTPSKQSNNKYAASSYLSLTPEQWKSHRSYSCQVTHEGSTVEKTVAPTECS
notes: IgG4 PAA; PSMA arm chains first, then CD3 arm (F405L, R409K); also called PSMB130 x CD3B219
On to B2, for which the EC50 lay within 8 to 8.5 nM in assay [2] and 37.8 to 57 nM in assay [3].

B3: PS3B23 (bispecific antibody, human IgG4 S228P, kappa, lambda, F234A L235A)
heavy 1: not shown
light 1: not shown
heavy 2: EVQLVESGGGLVQPGGSLRLSCAASGFTFNTYAMNWVRQAPGKGLEWVARIRSKYNNYATYYAASVKGRFTISRDDSKNSLYLQMNSLKTEDTAVYYCARHGNFGNSYVSWFAYWGQGTLVTVSSASTKGPSVFPLAPCSRSTSESTAALGCLVKDYFPEPVTVSWNSGALTSGVHTFPAVLQSSGLYSLSSVVTVPSSSLGTKTYTCNVDHKPSNTKVDKRVESKYGPPCPPCPAPEAAGGPSVFLFPPKPKDTLMISRTPEVTCVVVDVSQEDPEVQFNWYVDGVEVHNAKTKPREEQFNSTYRVVSVLTVLHQDWLNGKEYKCKVSNKGLPSSIEKTISKAKGQPREPQVYTLPPSQEEMTKNQVSLTCLVKGFYPSDIAVEWESNGQPENNYKTTPPVLDSDGSFLLYSKLTVDKSRWQEGNVFSCSVMHEALHNHYTQKSLSLSLGK
light 2: QTVVTQEPSLTVSPGGTVTLTCRSSTGAVTTSNYANWVQQKPGQAPRGLIGGTNKRAPGTPARFSGSLLGGKAALTLSGVQPEDEAEYYCALWYSNLWVFGGGTKLTVLGQPKAAPSVTLFPPSSEELQANKATLVCLISDFYPGAVTVAWKADSSPVKAGVETTTPSKQSNNKYAASSYLSLTPEQWKSHRSYSCQVTHEGSTVEKTVAPTECS
notes: IgG4 PAA; PSMA arm chains first, then CD3 arm (F405L, R409K); also called PSMB123 x CD3B219
In the case of B3, in assay [4], the binding result is “binds”.

B4: PS3B25 (bispecific antibody, human IgG4 S228P, kappa, lambda, F234A L235A)
heavy 1: not shown
light 1: not shown
heavy 2: EVQLVESGGGLVQPGGSLRLSCAASGFTFNTYAMNWVRQAPGKGLEWVARIRSKYNNYATYYAASVKGRFTISRDDSKNSLYLQMNSLKTEDTAVYYCARHGNFGNSYVSWFAYWGQGTLVTVSSASTKGPSVFPLAPCSRSTSESTAALGCLVKDYFPEPVTVSWNSGALTSGVHTFPAVLQSSGLYSLSSVVTVPSSSLGTKTYTCNVDHKPSNTKVDKRVESKYGPPCPPCPAPEAAGGPSVFLFPPKPKDTLMISRTPEVTCVVVDVSQEDPEVQFNWYVDGVEVHNAKTKPREEQFNSTYRVVSVLTVLHQDWLNGKEYKCKVSNKGLPSSIEKTISKAKGQPREPQVYTLPPSQEEMTKNQVSLTCLVKGFYPSDIAVEWESNGQPENNYKTTPPVLDSDGSFLLYSKLTVDKSRWQEGNVFSCSVMHEALHNHYTQKSLSLSLGK
light 2: QTVVTQEPSLTVSPGGTVTLTCRSSTGAVTTSNYANWVQQKPGQAPRGLIGGTNKRAPGTPARFSGSLLGGKAALTLSGVQPEDEAEYYCALWYSNLWVFGGGTKLTVLGQPKAAPSVTLFPPSSEELQANKATLVCLISDFYPGAVTVAWKADSSPVKAGVETTTPSKQSNNKYAASSYLSLTPEQWKSHRSYSCQVTHEGSTVEKTVAPTECS
notes: IgG4 PAA; also called PSMB87 x CD3B219
For the molecule B4, the binding result in assay [5] and in assay [6] was “binds” each time.
